Results taken from doi:10.1101/2022.06.13.495963.

Columns and labels:
Test in all cases: ITC
[1] = target: NRD^510-600 S577A, not phosphorylated (NRD^S577A) (human) (UniProt P10244)
[2] = target: B-Myb negative regulatory domain, C-terminal half, amino acids 510-600 (NRD^510-600) (human) (UniProt P10244)
[3] = target: NRD^510-600 T538A, not phosphorylated (NRD^T538A) (human) (UniProt P10244)
NRD^510-600 T538A, not phosphorylated (NRD^T538A) (human), sequence (P10244 510-600 T538A): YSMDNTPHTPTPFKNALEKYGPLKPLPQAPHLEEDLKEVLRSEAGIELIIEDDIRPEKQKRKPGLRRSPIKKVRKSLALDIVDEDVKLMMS

B-Myb negative regulatory domain, C-terminal half, amino acids 510-600 (NRD^510-600) (human), sequence (P10244 510-600): as the sequence (P10244 510-600 T538A) above, with A29T counted along it
NRD^510-600 S577A, not phosphorylated (NRD^S577A) (human), sequence (P10244 510-600 S577A): as the sequence (P10244 510-600 T538A) above, with A29T, S68A counted along it

Kd [1]: 3.2 µM | Kd [2]: 4.9 µM | Kd [3]: 6.5 µM
Substance: B-Myb DNA binding domain (B-Myb^34-183) (from UniProt P10244-1 34-183) (domain or fragment)
